{
  "source": "patent US6822075",
  "key": {"[1]": {"target": "Human polyclonal IgG (human)", "assay": "affinity constant, method not stated; table prints no power of ten"}, "[2]": {"target": "Human polyclonal IgG (human)", "assay": "affinity constant, method not stated; same result as the 1st table, row 8, column 7 but printed with its power of ten"}},
  "data": [
    {"binder": "Protein LG (protein) AVENKEETPETPETDSEEEVTIKANLIFANGSTQTAEFKGTFEKATSEAYAYADTLKKDNGEYTVDVADKGYTLNIKFAGKEKTPEEPKEEVTIKANLIYADGKTQTAEFKGTFEEATAEAYRYADALKKDNGEYTVDVADKGYTLNIKFAGKEKTPEEPKEEVTIKANLIYADGKTQTAEFKGTFEEATAEAYRYADLLAKENGKYTVDVADKGYTLNIKFAGKEKTPEEPKEEVTIKANLIYADGKTQTAEFKGTFAEATAEAYRYADLLAKENGKYTADLEDGGYTINIRFAGKKVDEKPEEPMDTYKLILNGKTLKGETTTEAVDAATAEKVFKQYANDNGVDGEWTYDDATKTFTVTEKPEVIDASELTPAVTTYKLVINGKTLKGETTTKAVDAETAEKAFKQYANDNGVDGVWTYDDATKTFTVTEM", "values": [
      {"measurement": "Ka", "setting": "[1]", "value": 20, "unit": "M⁻¹"},
      {"measurement": "Ka", "setting": "[2]", "value": "2e+10", "unit": "M⁻¹"}
    ]}
  ]
}
